B1: Protein phosphatase 2C homolog 4 (Schizosaccharomyces pombe (strain ATCC 38366 / 972)), O14156 (parent)
chain: MSIRFLKRLRAPLYIQNAYCSKNYFYRSFIQYYSPSNGPYLKISMNKAPQSLGLCTARGDSPTNQDRMAYGYLNNLKDTTNRDSPFFYGLFDGHGGTECSEFLSTNLGKIIENQDLNDTEKILKEVHSVGGYMAGLKPPFSLRTVLQSRDEDLLWRARLYYSFLQADMDYLTNYARPSPDSAVPGAVGTVAIITSKNNLSYWESDSYIIHLAHVGDTRALLCDSRTGRAHRLTFQHHPADVEEARRLRRYNMGFSRDSFGQKRFAWVANTRSFGDGYKLKKLGVVAEPQLTSIHSLRDDWSFLTLLSDGITDVVSDDEVVDIIKLSESPQDAANNIIRYAQNVGAVDDITCLVVRLPGWKKRTINDFTKNLRLEKSAYHPRRS
partner: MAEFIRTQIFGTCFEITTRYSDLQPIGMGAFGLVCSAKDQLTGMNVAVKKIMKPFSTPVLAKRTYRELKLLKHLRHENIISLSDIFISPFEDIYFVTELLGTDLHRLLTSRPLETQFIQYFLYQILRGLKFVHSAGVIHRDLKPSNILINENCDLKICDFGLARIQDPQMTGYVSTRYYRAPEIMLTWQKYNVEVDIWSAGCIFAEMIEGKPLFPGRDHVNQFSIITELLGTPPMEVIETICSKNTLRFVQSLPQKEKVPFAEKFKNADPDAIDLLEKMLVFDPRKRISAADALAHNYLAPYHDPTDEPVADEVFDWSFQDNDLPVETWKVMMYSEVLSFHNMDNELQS

How the values were obtained:
Settings in all cases: with hog1_schpo sty1, Q09892
[1] = variants of: B1
[2] = variants of: B1; remark: listed apart in the source
[3] = variants of: B1; remark: listed apart in the source

Variant | effect of a mutation on the interaction [1] | effect of a mutation on the interaction [2] | effect of a mutation on the interaction [3]
R10A | disrupting interaction | decreasing interaction | –
R8A | disrupting interaction | decreasing interaction | –
R27A | disrupting interaction | – | decreasing interaction
